Data reported in article doi:10.1101/2022.08.09.503292.
Read-outs that look alike come from different tables or passages of the source.

Columns and labels:
[1] = target: mono-nucleosome with extra-nucleosomal linker DNA (185-bp '601'), Oregon green 488 on H2B D51C (NCP^185) (human) (UniProt Q6FI13); assay: other fluorescence titration
BARD1 141-216 [2] = target: T1, BARD1 141-216 (UniProt Q99728 141-216); assay: NMR
BARD1 124-270 = BARD1 124-270 (UniProt Q99728 124-270); assay: NMR
BARD1 141-216 [3] = target: T1, BARD1 141-216; assay: NMR; remark: listed apart in the source

T1 sequence (Q99728 141-216): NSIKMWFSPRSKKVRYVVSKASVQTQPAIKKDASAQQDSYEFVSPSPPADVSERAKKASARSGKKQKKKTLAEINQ
Sequence of BARD1 124-270 (Q99728 124-270): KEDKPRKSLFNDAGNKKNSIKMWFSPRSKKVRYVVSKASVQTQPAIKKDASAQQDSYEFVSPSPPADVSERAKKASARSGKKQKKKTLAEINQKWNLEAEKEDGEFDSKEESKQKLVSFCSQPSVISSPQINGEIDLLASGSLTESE

Molecule: BRCA1^RING/BARD1^216 heterodimer (from UniProt P38398 1-112; Q99728 1-216) (complex)
- fold increase in binding affinity with linker DNA (NCP^185 against NCP^147) [1]: < 2 fold

B1: 36-mer dsDNA (dsDNA)
DNA 1: CCTACGACGCCTGGGGTACCAGCGCAATTGTGTACC
DNA 2: GGTACACAATTGCGCTGGTACCCCAGGCGTCGTAGG
- binding result (BARD1 141-216 [2]): binds
- binding result (BARD1 124-270): binds

B2: 36-mer bubble-DNA (mixed)
DNA 1: CCTACGACGCCTGGCTCTTTCCCGCAATTGTGTACC
DNA 2: B1 DNA 2
- binding result (BARD1 141-216 [3]): binds
